Biological target: the molecule itself
Assay: native gel or EMSA

B1: 14-3-3ζ pseudo-WT (C25A, C189A) (natural protein)
chain: MDKNELVQKAKLAEQAERYDDMAAAMKSVTEQGAELSNEERNLLSVAYKNVVGARRSSWRVVSSIEQKTEGAEKKQQMAREYREKIETELRDICNDVLSLLEKFLIPNASQAESKVFYLKMKGDYYRYLAEVAAGDDKKGIVDQSQQAYQEAFEISKKEMQPTHPIRLGLALNFSVFYYEILNSPEKAASLAKTAFDEAIAELDTLSEESYKDSTLIMQLLRDNLTLWTSDTQGDEAEAGEGGEN
  stoichiometry N: 2
